According to patent US20120190558A1:

Biological target: endogenous KCNH2-1A of rat cortical neurons (rat) (UniProt O08962)
Experiment: cell-based or functional assay

Isoform 3.1 of KCNH2 (human) (from UniProt Q12809 103-1159)
deactivation time constant (tau) of E-4031-sensitive tail current, slow component, at -100 mV of command potential: 7.43 fold
fold decrease in deactivation time constant (tau) of E-4031-sensitive tail current, fast component, at -100 mV of command potential: 5.88 fold
